From article PMC12207360, “Hyperpolarization Modulation of the T‐Type hCav3.2 Channel by Human Synenkephalin [1–53], a Shrew Neurotoxin Analogue without Paralytic Effects” (Angewandte Chemie (International Ed. in English), 2025)
Where no end group is shown, it is not given here.

Experiments:
[1] = system: trypsin; assay: Trypsin digestion; settings: intact peptide, without disulfide reduction
Protocol: (§1) To determine the connectivity of disulfide bonds in synthetic 2, enzymatic digestion and subsequent fragment peptide analysis were performed. […] However, due to high proteolytic stability, analysis of these degraded products provided little information on the disulfide bond connectivity in 2. To perform stepwise S‐alkylation with limiting reduction of disulfide bonds,^[ [52], [53] ^] 2 was denatured with 6 M aq. guanidine hydrochloride (GdmCl)/0.1 M aq. citrate, followed by tris(2‐carboxyethyl)phosphine (TCEP) reduction and Michael addition to N‐ethylmaleimide (NEM). As a result, we obtained six kinds of S‐alkylated products (2SS‐a/b/c and 1SS‐a/b/c) with one or two disulfide bonds cleaved, respectively, along with unreacted 2 (3SS) and a fully S‐alkylated product (0SS) (Scheme 1a and Figure S4a). HPLC‐purified 1SS‐a (3) and 1SS‐b (4), which have different patterns of four Cys(S‐Nem) residues, were then reduced with DTT and alkylated with iodoacetamide.

[2] = system: glutamyl endopeptidase (Glu-C); assay: Glutamyl endopeptidase (Glu-C) digestion; settings: intact peptide, without disulfide reduction
Protocol: as §1

[3] = format: physicochemical; settings: cysteine/cystine redox condition, 20% EtOH / 0.1 M aq. NH4OAc, pH 8.5, 37 °C; misfolded products predominantly converted to 2
From the text: We first examined the preparation of hSYN from the linear precursor peptide 1 (Scheme 1a). Oxidation of 1 in air or with DMSO gave only misfolded analogues with two (2SS) and/or three (3SS) disulfide bonds (Figure S1a,b). Meanwhile, a redox condition using cysteine / cystine in EtOH / aq. NH4OAc^[ [51] ^] smoothly promoted the formation of three disulfide bonds to afford hSYN (2) in 65% yield almost as a single isomer, along with trace amounts of misfolded 3SS analogue. […]
SH 前述の 22 の混合物に、前述のバッファーSHB (290 µL; 第四章第一節第四項) に溶解したSH 21SH
N-terminal segment(7.2 mg, 2.1 µmol) と TCEP-HCl (0.32 mg, 1.1 µmol) C-terminal segmentを加えた。6 M 水酸化ナトリウム水溶液1 で反応溶液を pH 7.0 に調整した後、室温で 22 時間攪拌した。得られた混合物を ODS カ
ラムクロマトグラフィー [COSMOSIL 75 C18 OPN (φ 8 x 8 mm), MeCN / H2O (0.1% TFA) = 0:1 Linear peptide 1. […]
rate 1.0 mL/min, UV 215 nm (A; 0.1% aq. TFA, B; 0.08% TFA/MeCN) ]. MS (MALDI-TO F ) m/z 3001.0 (calculated for […]
2: tR 12.2 min [Develosil® ODS HG-5 (5 µm, f 4.6 mm × 250 mm), temp. […] 40 °C, 25% for 10 min and 25–45% linear gradient for 20 min, flow rate […], UV215 nm (A; 0.1% aq. TFA, B; 0.08% TFA/MeCN), see Figure S7]; MS (MALDI-TO F ) m/z 2998.0 (calculated […]

human synenkephalin [1–53] (ECSQDCATCSYRLVRPADINFLACVMECEGKLPSLKIWETCKELLQLSKPELP; disulfide (positions not given here); also: Type II disulfides, places not given here; UniProt P01210 25-77, looked up, fragment) [compound 2, human synenkephalin N-terminal part [1–53], three disulfide bonds Cys(I)–Cys(V), Cys(II)–Cys(IV), Cys(III)–Cys(VI)]
proteolytic stability toward trypsin [1]: partially digested | proteolytic stability toward Glu-C [2]: partially digested | thermodynamic stability [3]: most thermodynamically stable
